Drawing on article PMC2937177, this text covers stoichiometry N for 1 molecule.

This experiment has as its target T1, KcsA (S. lividans), P0A334.
T1 chain: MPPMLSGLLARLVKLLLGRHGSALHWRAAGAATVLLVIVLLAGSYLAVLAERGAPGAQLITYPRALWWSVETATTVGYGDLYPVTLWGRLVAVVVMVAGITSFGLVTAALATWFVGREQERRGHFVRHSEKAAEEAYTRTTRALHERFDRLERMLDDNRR
Nature of the experiment: SDS-PAGE. The conditions noted are these: remark: other sources report otherwise.

B1: KcsA, P0A334 1-160 (natural protein)
chain: MPPMLSGLLARLVKLLLGRHGSALHWRAAGAATVLLVIVLLAGSYLAVLAERGAPGAQLITYPRALWWSVETATTVGYGDLYPVTLWGRLVAVVVMVAGITSFGLVTAALATWFVGREQERRGHFVRHSEKAAEEAYTRTTRALHERFDRLERMLDDNRR
For orientation: stoichiometry N means a count of units in the complex or per binding partner. As to B1, the stoichiometry N is 4.
